# T1: BZR1 (Arabidopsis thaliana, UniProt Q8S307)
# T1 construct: expressed in transfected cells; host or cells: yeast strain MaV203
# T1 sequence (Q8S307 with tags, fused parts or gaps): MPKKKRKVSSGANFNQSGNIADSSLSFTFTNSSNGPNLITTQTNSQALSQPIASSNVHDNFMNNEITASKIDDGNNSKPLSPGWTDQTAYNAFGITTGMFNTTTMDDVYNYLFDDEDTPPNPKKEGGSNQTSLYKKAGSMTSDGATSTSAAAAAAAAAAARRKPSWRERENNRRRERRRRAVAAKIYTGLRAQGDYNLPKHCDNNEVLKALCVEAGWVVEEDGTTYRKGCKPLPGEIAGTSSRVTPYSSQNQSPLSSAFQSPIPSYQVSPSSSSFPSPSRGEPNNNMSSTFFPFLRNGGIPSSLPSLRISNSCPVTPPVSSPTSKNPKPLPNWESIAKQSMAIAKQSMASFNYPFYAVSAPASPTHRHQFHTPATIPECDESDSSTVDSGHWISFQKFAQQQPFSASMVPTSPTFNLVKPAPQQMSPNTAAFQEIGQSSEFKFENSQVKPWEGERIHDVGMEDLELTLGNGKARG
# B1: PPD1: PEAPOD 1 protein of Arabidopsis thaliana, SEQ ID NO: 1 (protein, listed as Arabidopsis thaliana)
# chain: MDVGVSPAKSILAKPLKLLTEEDISQLTREDCRKFLKDKGMRRPSWNKSQAIQQVLSLKALYEPGDDSGAGIFRKILVSQPVNPPRVTTTLIEPSNELEACGRVSYPEDNGACHRMDSPRSAEFSGGSGHFVSEKDGHKTTISPRSPAETSELVGQMTIFYSGKVNVYDGIPPEKARSIMHFAANPIDLPENGIFASSRMISKLISKEKMMELPQKGLEKANSSRDSGMEGQANRKVSLQRYREKRKDRKFSKAKKCPGVASSSLEMFLNCQPRMKAAYSQNLGCTGSPLHSQSPESQTKSPNLSVDLNSEGI
# Molecular target: T1, BZR1
# Assay: Yeast two hybrid (Y2H) interaction with BZR1
# Format: binding
# Excerpt: The constructs for Y2H and BiFC assays were generated as follows. Arabidopsis DNA sequences encoding the open reading frames for; At4g14713 (PPD1) and truncation and deletion derivatives of PPD1: PPD1; PPD1Δppd (N-terminal truncation of sequences encoding aa 1-61), PPD1Δtify, (internal deletion of sequences encoding aa 154-186), PPD1Δjas*(C-terminal truncation of sequences encoding aa 229-313) (FIG. 5), At4g28910 (NINJA), At1g15750 (TPL), At1g75080 (BZR1), a synthetic PUAS-35S promoter, and sequences encoding GAL4DBD and c-myc fusion proteins were synthesised and sequence verified by GeneArt. Most sequences were supplied as clones in pENTR221 ready for Gateway cloning into yeast and plant expression vectors. The exception, a promoter sequence for in planta transcription activation assays, incorporating 5′ Xho1 and 3′ Nco1 restriction enzyme sites, was supplied cloned in pMA-RQ. Plasmids for the transient LUC reporter assay: A synthetic promoter with 5×UAS GAL4 DNA binding sites upstream of a −105 bp CaMV35S promoter was cloned into the XhoI-NcoI sites within a dual luciferase construct pNWA62, which contains an intron-containing Firefly Luciferase gene (LUC) and 35Spro::Renilla Luciferase (REN) as an internal standard, to construct pAML7. […]
molecule,measurement,value
B1,interaction with BZR1,no direct interaction

# — patent publication US10487337B2, “Methods for monocot plant improvement” (Agresearch Limited, priority 2014, dated 2019)
